Laboratory results reported in patent US20200031947A1 (RINAT NEUROSCIENCE, published 2020).

How the values were obtained:
[1] = target: T1, human GITR (hGITR), soluble analyte (human, UniProt Q9Y5U5 26-162); experiment: SPR (Biacore T200), 37 C; antibody captured on anti-human Fc chip, GITR as analyte; 1:1 Langmuir fit
T1 sequence: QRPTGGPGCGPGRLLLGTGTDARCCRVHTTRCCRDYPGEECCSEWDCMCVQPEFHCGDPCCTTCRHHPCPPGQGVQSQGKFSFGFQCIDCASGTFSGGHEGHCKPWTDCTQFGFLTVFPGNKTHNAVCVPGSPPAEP
Procedure: (§1) The sensor chip preparation was performed at 25° C. with a running buffer of 10 mM HEPES, 150 mM NaCl, 0.05% (v/v) Tween-20, pH 7.4. An anti-human Fc sensor chip was made by activating all flow cells of a Biacore CM4 sensor chip with a 1:1 (v/v) mixture of 400 mM EDC and 100 mM NHS for 7 minutes, at a flow rate of 10 μL/min. An anti-human Fc reagent (Goat Anti-Human IgG Fc, SouthernBiotech Catalog #2081-01) was diluted to […] in 10 mM Sodium Acetate pH 4.5 and injected on all flow cells for 7 minutes at 20 μL/min. All flow cells were blocked with 100 mM ethylenediamine in 150 mM Borate buffer pH 8.5 for 7 minutes at 10 μL/min.
(§2) Antibodies were captured from undiluted supernatants onto downstream flow cells (flow cells 2, 3 and 4) at a flow rate of 10 μL/min for 2 minutes. Different antibodies were captured on each flow cell. Flow cell 1 was used as a reference surface. Following capture of antibodies, analyte (buffer, hGITR, or cyGITR) was injected at 30 μL/min on all flow cells for two minutes. After the analyte injection, dissociation was monitored for 10 minutes followed by regeneration of all flow cells with three 1-minute injections of 75 mM Phosphoric Acid. For each captured antibody, the following analyte injections were performed: buffer, 20 nM hGITR, 200 nM hGITR, 20 nM cyGITR and 200 nM cyGITR. Buffer cycles were collected for each captured antibody for double-referencing purposes (double-referencing as described in Myszka, J. Mol. Recognit. 12:279-284 (1999). The double-referenced sensorgrams were fit globally to a simple 1:1 Langmuir with mass transport binding model.

[2] = target: T2, cynomolgus GITR (cyGITR), soluble analyte (cynomolgus); experiment: as above
T2 construct: Soluble analyte in SPR; construct not described; also called cGITR
Procedure: as §1, §2

human GITR on cells = target: T3, human GITR on cells (human, UniProt Q9Y5U5 26-162); experiment: flow cytometry on human T cells activated 48 h with CD3/28 beads; unlabeled antibody detected with APC goat anti-mouse Fc gamma F(ab')2
T3 construct: Endogenous on primary human T cells and Tregs, or transfected into Jurkat and 3A9 cells
T3 sequence: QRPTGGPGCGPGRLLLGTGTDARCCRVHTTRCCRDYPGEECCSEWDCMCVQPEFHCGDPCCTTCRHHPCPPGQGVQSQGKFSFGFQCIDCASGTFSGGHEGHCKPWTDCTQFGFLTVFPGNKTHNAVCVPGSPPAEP
Text: Primary human lymphocytes were isolated from concentrated whole blood provided by the Stanford Blood Bank by first diluting blood 1:4 in Phosphate Buffered Saline (PBS, without Ca2+ and Mg2+). Peripheral Blood Mononuclear Cells (PBMC) were isolated using a Ficoll gradient underlay (Ficoll-Paque PLUS, GE Healthcare Life Sciences, Pittsburgh, Pa.). The harvested buffy layer was washed twice with PBS and counted. Cells were resuspended at 50*10e6c/mL in PBS+2% Fetal Bovine Serum (FBS) and processed with CD3 negative enrichment kit (Stem Cell Tech Vancouver, BC) according to manufacturer's instructions. After enrichment, cells were counted and frozen in aliquots of 10-20*10e6 in 90% FBS 10% DMSO freeze media for future use. For activation, a vial of cells from a donor T cell was thawed and rested overnight in R10c (RPMI 1640+10% FBS+1×NEAA+1×Sodium Pyruvate+1×Pen-Strep) at 1*10e6 cells/mL in a T75 flask. Cells were counted and stimulated for 48 hours with Dynabeads Human CD3/28 T cells activating beads at a 1:1 bead to cell ratio (Thermo Fisher). After 48 hours the cells were removed from media and washed with 1×PBS. Cells were titrated into a 96 well plate where they were stained with unlabeled mouse anti-human GITR antibodies (100-0.001 ug/mL) in PBS and incubated for 30 minutes at 37° c. […]

B1: m10H2 (antibody, V domains shown)
VH: QVQLQQSGAELMKPGASVKISCTATGYTISRYWIEWVKQRPGHGLEWIGEILPGSGVTNYNEKFKGKATFTADTSSNTAYMQLSSLTSEDSAVYSCARKGTYYAMDYWGQGTSVTVSS
VL: DILLTQSPAILSVSPGERVSFSCRASQSIGTSIHWYQQRTNGSPRLLIKYASESVSGIPSRFSGSGSGTDFTLFINSVESEDIADYYCQQTYSWPATFGAGTKLELK
notes: In ADCC it is called hIgG1; also called anti-human GITR antibody m10H2; A647 labeled m10H2
[1]
  Kd: 2.2 nM
  koff: 0.00077 s⁻¹
  kon: 350000 M⁻¹ s⁻¹
  t1/2: 15 min
[2]
  Kd: > 100 nM
  koff: 0.0073 s⁻¹
  t1/2: 1.6 min
Human GITR on cells
  EC50 (read off the curve): ~0.07 µg/mL
